In test [1] the target is GPI-APs (transferred from wildtype EL cells to ManN-treated human adipocytes) (human (endogenous in K562 EL cells)).
Test [2] shares this target. The source holds these as a separate data set.

In test [1], “BSA (fraction V, defatted) (from UniProt P02769 25-607) (natural protein)” displayed a decrease in transfer of GPI-APs from wildtype EL cells to ManN-treated human adipocytes in transwell co-culture (1 week), read by SAW sensing of acceptor PM; BSA 50 mg/mL, final dilution 1:75 of 35%.

B1: serum GPLD1 (enzyme)
chain: CGLSTHVEIGHRALEFLQLHNGRVNYRELLLEHQDAYQAGIVFPDCFYPSICKGGKFHDVSESTHWTPFLNASVHYIRENYPLPWEKDTEKLVAFLFGITSHMAADVSWHSLGLEQGFLRTMGAIDFHGSYSEAHSAGDFGGDVLSQFEFNFNYLARRWYVPVKDLLGIYEKLYGRKVITENVIVDCSHIQFLEMYGEMLAVSKLYPTYSTKSPFLVEQFQEYFLGGLDDMAFWSTNIYHLTSFMLENGTSDCNLPENPLFIACGGQQNHTQGSKMQKNDFHRNLTTSLTESVDRNINYTERGVFFSVNSWTPDSMSFIYKALERNIRTMFIGGSQLSQKHVSSPLASYFLSFPYARLGWAMTSADLNQDGHGDLVVGAPGYSRPGHIHIGRVYLIYGNDLGLPPVDLDLDKEAHRILEGFQPSGRFGSALAVLDFNVDGVPDLAVGAPSVGSEQLTYKGAVYVYFGSKQGGMSSSPNITISCQDIYCNLGWTLLAADVNGDSEPDLVIGSPFAPGGGKQKGIVAAFYSGPSLSDKEKLNVEAANWTVRGEEDFSWFGYSLHGVTVDNRTLLLVGSPTWKNASRLGHLLHIRDEKKSLGRVYGYFPPNGQSWFTISGDKAMGKLGTSLSSGHVLMNGTLKQVLLVGAPTYDDVSKVAFLTVTLHQGGATRMYALTSDAQPLLLSTFSGDRRFSRFGGVLHLSDLDDDGLDEIIMAAPLRIADVTSGLIGGEDGRVYVYNGKETTLGDMTGKCKSWITPCPEEKAQYVLISPEASSRFGSSLITVRSKAKNQVVIAAGRSSLGARLSGALHVYSLGSD
The molecule B1 returned a transfer of GPI-APs from wildtype EL cells to ManN-treated human adipocytes in transwell co-culture (1 week), read by SAW sensing of acceptor PM; GPLD1 100 mU/mL (% of serum inhibition) in test [2] of 70.
